From article PMC5388505, “Interferon-inducible ribonuclease ISG20 inhibits hepatitis B virus replication through directly binding to the epsilon stem-loop structure of viral RNA”

Assays:
[1] = biological target: T1, ISG20 (wild type) (UniProt Q96AZ6 1-181); test: EMSA; no Mn2+; bottom 4 bp stated indispensable for binding; ISG20 EMSA: 20 mM HEPES, 100 mM KCl, 1 mM DTT, 0.5 mg/ml BSA, 10% glycerol, 0.05 ug/ul poly[dI-dC], 30 C 30 min, 100 ng RNA, pH not stated; Pol EMSA: 20 mM Tris pH 7.5, 2 mM MgCl2, 15 mM NaCl, 20 mM KCl, 4 mM DTT, yeast tRNA, 30 C 1 h; settings: protein: recombinant; label: 5'-32P; hairpin
[2] = biological target: T1, ISG20 (wild type); test: EMSA; no Mn2+; ISG20 EMSA: 20 mM HEPES, 100 mM KCl, 1 mM DTT, 0.5 mg/ml BSA, 10% glycerol, 0.05 ug/ul poly[dI-dC], 30 C 30 min, 100 ng RNA, pH not stated; Pol EMSA: 20 mM Tris pH 7.5, 2 mM MgCl2, 15 mM NaCl, 20 mM KCl, 4 mM DTT, yeast tRNA, 30 C 1 h; settings: protein: recombinant; label: 5'-32P; hairpin
[3] = biological target: ISG20 D94G (UniProt Q96AZ6 1-181, D94G); test: EMSA; no Mn2+; complex with altered mobility; ISG20 EMSA: 20 mM HEPES, 100 mM KCl, 1 mM DTT, 0.5 mg/ml BSA, 10% glycerol, 0.05 ug/ul poly[dI-dC], 30 C 30 min, 100 ng RNA, pH not stated; Pol EMSA: 20 mM Tris pH 7.5, 2 mM MgCl2, 15 mM NaCl, 20 mM KCl, 4 mM DTT, yeast tRNA, 30 C 1 h; settings: protein: recombinant; tags: 6xHis (pRSET A); label: 5'-32P; stem-loop with bulge and apical loop
[4] = biological target: ISG20 dExoI (UniProt Q96AZ6 1-181, del7-16); test: EMSA; no Mn2+; binding not reduced, even increased vs wild type; ISG20 EMSA: 20 mM HEPES, 100 mM KCl, 1 mM DTT, 0.5 mg/ml BSA, 10% glycerol, 0.05 ug/ul poly[dI-dC], 30 C 30 min, 100 ng RNA, pH not stated; Pol EMSA: 20 mM Tris pH 7.5, 2 mM MgCl2, 15 mM NaCl, 20 mM KCl, 4 mM DTT, yeast tRNA, 30 C 1 h; settings: protein: recombinant; tags: 6xHis (pRSET A); label: 5'-32P; stem-loop with bulge and apical loop
[5] = biological target: ISG20 dExoII (UniProt Q96AZ6 1-181, del86-101); test: as above; settings: protein: recombinant; tags: 6xHis (pRSET A); label: 5'-32P; stem-loop with bulge and apical loop
[6] = biological target: ISG20 dExoIII (UniProt Q96AZ6 1-181, del147-157); test: EMSA; no Mn2+; binding completely lost; ISG20 EMSA: 20 mM HEPES, 100 mM KCl, 1 mM DTT, 0.5 mg/ml BSA, 10% glycerol, 0.05 ug/ul poly[dI-dC], 30 C 30 min, 100 ng RNA, pH not stated; Pol EMSA: 20 mM Tris pH 7.5, 2 mM MgCl2, 15 mM NaCl, 20 mM KCl, 4 mM DTT, yeast tRNA, 30 C 1 h; settings: protein: recombinant; tags: 6xHis (pRSET A); label: 5'-32P; stem-loop with bulge and apical loop
[7] = biological target: T1, ISG20 (wild type); test: EMSA; no Mn2+; dose-dependent; supershift with anti-His; competed by 10-40x cold epsilon; ISG20 EMSA: 20 mM HEPES, 100 mM KCl, 1 mM DTT, 0.5 mg/ml BSA, 10% glycerol, 0.05 ug/ul poly[dI-dC], 30 C 30 min, 100 ng RNA, pH not stated; Pol EMSA: 20 mM Tris pH 7.5, 2 mM MgCl2, 15 mM NaCl, 20 mM KCl, 4 mM DTT, yeast tRNA, 30 C 1 h; settings: protein: recombinant; label: 5'-32P; stem-loop with bulge and apical loop

B1: Lower stem d4bp + bulge (LSd4+B) (structured_RNA)
RNA: CAUGUCCUACUGUUCUGGGGCAUG
[1]
  binding result: no binding

B2: Upper stem + loop (US+L) (structured_RNA)
RNA: UCAAGCCUCCAAGCUGUGCCUUGGGUGGCUUUG
[2]
  binding result: no binding

B3: Lower stem + bulge (LS+B) (structured_RNA)
RNA: CUUGUUCAUGUCCUACUGUUCUGGGGCAUGGACAUC
[2]
  binding result: binds

B4: Lower stem + bulge mutant (LS+Bm) (structured_RNA)
RNA: CUUGUUCAUGUCCUACUAAAAUGGGGCAUGGACAUC
[2]
  binding result: binds

B5: HBV epsilon full length (FL) (structured_RNA)
RNA: CUUGUUCAUGUCCUACUGUUCAAGCCUCCAAGCUGUGCCUUGGGUGGCUUUGGGGCAUGGACAUC
[3]
  binding result: binds
[4]
  binding result: binds
[5]
  binding result: binds
[6]
  binding result: no binding
[7]
  binding result: binds
